According to the supplement of paper PMC10126150:
± gives the standard deviation of the averaged measurements.

Tested on: ATP
Experiment: switch fluorescence ratio, 500 uM ATP over buffer (Cy3 cluster intensity, sum of 5 cycles each) (fold (ratio)); higher = stronger signal-on switching upon ATP binding; sequences stand for … in TCGTCGGCAGCGTCAGATGTGTATAAGAGACAGTTTTTTTTTTTTTTTTTTTTTTTTT…TC
Conditions: aptamer strand: ATP DNA aptamer (quencher-CACCTGGGGGAGTATTGCGGAGGAAGG + anchor), 100 nM annealed; ATP concentration: 500 uM
In short: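 The quencher-labelled ATP aptamer, at 100 nM, was annealed to Cy3-labelled switching-strand clusters on a modified Illumina MiSeq flow-cell. The clusters were imaged in selection buffer, then after 15 min with 500 uM ATP at 22 °C, and this buffer/ATP cycle ran five times with NaOH stripping and re-annealing between runs. Per-cluster fluorescence ratios, summed target-cycle over summed buffer-cycle Cy3 intensity, were averaged per switch-domain sequence. Clusters outside 100-1000 RFU were excluded.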
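Note: ATP exposure 15 min at 22 °C before imaging.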

| Sequence | switch fluorescence ratio |
| --- | --- |
| ATGTCCCGTT | 0.98 ± 0.014 |
| ATGTCCGGGG | 0.985 ± 0.042 |
| ATGTCCGGGT | 1.03 ± 0.032 |
| ATGTCCGGTT | 1 ± 0.019 |
| ATGTCGATGC | 1.01 ± 0.032 |
| ATGTCGGTCG | 1.02 ± 0.012 |
| ATGTCTTGGC | 0.998 ± 0.03 |
| ATGTCTTGTG | 0.985 ± 0.026 |
| ATGTGAAGAG | 0.9952 ± 0.003 |
| ATGTGACTGG | 0.986 ± 0.044 |
| ATGTGAGGGT | 1.017 ± 0.0039 |
| ATGTGAGTAT | 0.9753 ± 0.0028 |
| ATGTGCAGCG | 1.025 ± 0.0049 |
| ATGTGCCTGC | 1.07 ± 0.03 |
| ATGTGCGTAG | 1.01 ± 0.017 |
| ATGTGGGCAA | 1.08 ± 0.013 |
| ATGTGGGCTA | 0.992 ± 0.03 |
| ATGTGGGGAC | 1.01 ± 0.084 |
| ATGTGGGGGG | 0.992 ± 0.039 |
| ATGTGGTCT | 1.02 ± 0.03 |
| ATGTGTAAAG | 0.98 ± 0.017 |
| ATGTGTCTAT | 0.998 ± 0.036 |
| ATGTTAAACG | 1.007 ± 0.0024 |
| ATGTTAGAAA | 1.02 ± 0.032 |
| ATGTTAGGG | 0.98 ± 0.011 |
| ATGTTAGGTT | 1 ± 0.029 |

| Sequence | switch fluorescence ratio |
| --- | --- |
| ATGTTATGAA | 1.06 ± 0.11 |
| ATGTTCACGG | 1.01 ± 0.033 |
| ATGTTGAGCT | 1.019 ± 0.0023 |
| ATGTTGGGAC | 1.02 ± 0.032 |
| ATGTTGTCGG | 0.987 ± 0.022 |
| ATGTTGTTGG | 0.9676 ± 0.007 |
| ATGTTTAATC | 0.986 ± 0.023 |
| ATGTTTATAG | 0.98 ± 0.024 |
| ATGTTTCTGA | 0.9851 ± 0.0032 |
| ATGTTTTATA | 1.02 ± 0.023 |
| ATGTTTTCTC | 0.993 ± 0.013 |
| ATGTTTTCTT | 0.998 ± 0.016 |
| ATGTTTTTAC | 0.949 ± 0.029 |
| ATGTTTTTTG | 0.982 ± 0.023 |
| ATTAAAAGA | 1.01 ± 0.023 |
| ATTAAAAGGA | 0.991 ± 0.073 |
| ATTAAAAGTG | 0.986 ± 0.013 |
| ATTAAAATAC | 1.09 ± 0.11 |
| ATTAAAGTGC | 0.999 ± 0.027 |
| ATTAAATATC | 1.03 ± 0.024 |
| ATTAAATGGG | 0.976 ± 0.036 |
| ATTAAATTCG | 1 ± 0.017 |
| ATTAAATTTT | 1.01 ± 0.032 |
| ATTAACTGCT | 0.9932 ± 0.0058 |
| ATTAAGCGGC | 1.05 ± 0.13 |
| ATTAAGGA | 1 ± 0.051 |

| Sequence | switch fluorescence ratio |
| --- | --- |
| ATTAAGGTCG | 1.07 ± 0.023 |
| ATTAAGGTGC | 1.31 ± 0.075 |
| ATTAAGTGTT | 0.984 ± 0.042 |
| ATTAATAGG | 0.997 ± 0.026 |
| ATTAATGGGT | 1.02 ± 0.027 |
| ATTAATGTTG | 1.054 ± 0.0067 |
| ATTACAACGA | 1.015 ± 0.0032 |
| ATTACATGTA | 0.9871 ± 0.0098 |
| ATTACGAAGA | 1.01 ± 0.011 |
| ATTACGCTGG | 1.01 ± 0.024 |
| ATTACTCTAC | 1.27 ± 0.025 |
| ATTACTTTTT | 1 ± 0.027 |
| ATTAGAAGGT | 0.994 ± 0.051 |
| ATTAGATGAC | 1.02 ± 0.016 |
| ATTAGCACGT | 1.023 ± 0.0031 |
| ATTAGCCCGG | 0.9944 ± 0.00051 |
| ATTAGCGAGA | 1.028 ± 0.0035 |
| ATTAGGAAAG | 0.998 ± 0.028 |
| ATTAGGACGT | 0.984 ± 0.032 |
| ATTAGGGTCT | 0.986 ± 0.025 |
| ATTAGGTTTC | 1.01 ± 0.062 |
| ATTAGTAAGA | 0.975 ± 0.011 |
| ATTAGTCCGG | 0.994 ± 0.03 |
| ATTAGTCGCG | 1.01 ± 0.014 |
| ATTAGTCGCT | 0.978 ± 0.019 |
